Source: the RNAGym collection of RNA variant scans (doi:10.1021/acssynbio.7b00057)

B1: Pistol ribozyme (parent)
chain: GGGUCGUUGUUCCAUAAUCGCGUGGAUAUGGCACGCAAGUUUCUACCGGGCACCGUAAAUGUCCGACUGGAGCCGUUCGGGCGGCUAUAAACAGACCUCAGGCCCGAAGCGUGGCGGCACCUGCCGCCGGUGGUAAAAAAGAUCGGAAGAGCACACGUCU

Variants of: B1
Test: aptazyme ON/OFF ratio, guanine; higher = stronger switching; co-transcriptional cleavage with and without guanine

U8G G9C C12A and U8G G9C C12U are the same in “aptazyme ON/OFF ratio” value: 1.07 for the first, 1.07 for the second.

First: U8G G9C C12G
Second: U8G G9C U10C U11C C12A C13A
The “aptazyme ON/OFF ratio” value of the first is higher: 1.05 for the first, 1.02 for the second.

Compared with U8G G9C U10C U11C C12A C13G, U8G G9C U10C U11C C12A C13U is higher in “aptazyme ON/OFF ratio” value: 1.06 for the first, 1.07 for the second.

Going from U8G G9C U10A U11G C13G to U8G G9C U10A U11G C13U, the “aptazyme ON/OFF ratio” value rises from 1.04 to 1.05.

Compared with U8G G9C U10A U11G C13A, U8G G9C U10C U11G C12U is higher in “aptazyme ON/OFF ratio” value: 1.08 for the first, 1.25 for the second.

Going from U8G G9C U10C U11G C12A to U8G G9C U10C U11G C12G, the “aptazyme ON/OFF ratio” value rises from 1.07 to 1.1.

Compared with U8G G9C U10C U11C C12G C13U, U8G G9C U10C U11C C12G C13A is higher in “aptazyme ON/OFF ratio” value: 1.08 for the first, 1.11 for the second.

Going from U8G G9C U10C U11C C12G C13G to U8G G9C C12G C13A, the “aptazyme ON/OFF ratio” value falls from 1.09 to 1.05.

Compared with U8G G9C C12G C13G, U8G G9C C12G C13U is higher in “aptazyme ON/OFF ratio” value: 1.03 for the first, 1.05 for the second.

U8G G9U U10A U11C C12G C13U and U8G G9U U10A U11C C12G C13G are the same in “aptazyme ON/OFF ratio” value: 1.11 for the first, 1.11 for the second.

First: U8G G9U U10A U11C C12G C13A
Second: U8G G9U U10A U11C C12G
The “aptazyme ON/OFF ratio” value of the first is lower: 1.08 for the first, 1.1 for the second.

Compared with U8G G9U U10A U11C C12A, U8G G9U U10A U11C C12U is lower in “aptazyme ON/OFF ratio” value: 1.12 for the first, 1.05 for the second.

Compared with U8G G9C U10G U11C C12A, U8G G9C U10G U11C C12U is lower in “aptazyme ON/OFF ratio” value: 1.05 for the first, 1.03 for the second.

Compared with U8G G9C U10G U11C C12G, U8G G9C U10C U11C C13G is lower in “aptazyme ON/OFF ratio” value: 1.03 for the first, 1.01 for the second.

Going from U8G G9C U10C U11C C13A to U8G G9C U10C U11C C13U, the “aptazyme ON/OFF ratio” value falls from 1.06 to 1.03.

Going from U8G G9U C12U C13U to U8G G9U C12U C13G, the “aptazyme ON/OFF ratio” value rises from 1.14 to 1.28.

Compared with U8G G9U C12U C13A, U8G G9C U10A U11A C12A C13G is lower in “aptazyme ON/OFF ratio” value: 1.22 for the first, 1.09 for the second.

Going from U8G G9C U10A U11A C12A C13A to U8G G9C U10A U11A C12A C13U, the “aptazyme ON/OFF ratio” value rises from 1.12 to 1.18.

Going from U8G G9C U10A U11G C12G C13G to U8G G9C U10A U11G C12G C13U, the “aptazyme ON/OFF ratio” value falls from 1.31 to 1.22.

Compared with U8G G9C U10A U11G C12G C13A, U8G G9C U10G U11G C13G is lower in “aptazyme ON/OFF ratio” value: 1.35 for the first, 1.12 for the second.

Compared with U8G G9C U10G U11G C13A, U8G G9C U10G U11G C13U is lower in “aptazyme ON/OFF ratio” value: 1.16 for the first, 1.12 for the second.

Going from U8G G9U C12G C13G to U8G G9U C12G C13U, the “aptazyme ON/OFF ratio” value rises from 1.27 to 1.31.

Compared with U8G G9U C12G C13A, U8G G9C U10A U11G C12G is lower in “aptazyme ON/OFF ratio” value: 1.3 for the first, 1.19 for the second.

Going from U8G G9C U10A U11G C12A to U8G G9C U10A U11G C12U, the “aptazyme ON/OFF ratio” value rises from 1.07 to 1.2.

Compared with U8G G9C U11G C12G, U8G G9C U11G C12A is lower in “aptazyme ON/OFF ratio” value: 1.15 for the first, 1.11 for the second.

Compared with U8G G9C U11G C12U, U8G G9C U10C U11G C12U C13G is lower in “aptazyme ON/OFF ratio” value: 1.22 for the first, 1.1 for the second.

Going from U8G G9C U10C U11G C12U C13U to U8G G9C U10C U11G C12U C13A, the “aptazyme ON/OFF ratio” value falls from 1.07 to 1.04.

Going from U8G G9C U10A U11A C12G C13A to U8G G9C U10A U11A C12G C13U, the “aptazyme ON/OFF ratio” value rises from 1.11 to 1.18.

First: U8G G9C U10A U11A C12G C13G
Second: U8G G9C U11C C12A C13U
The “aptazyme ON/OFF ratio” value of the first is higher: 1.18 for the first, 1.04 for the second.

U8G G9C U11C C12A C13A and U8G G9C U11C C12A C13G are the same in “aptazyme ON/OFF ratio” value: 1.04 for the first, 1.04 for the second.

First: U8G G9C U10G U11C C12U C13A
Second: U8G G9C U10G U11C C12U C13G
The “aptazyme ON/OFF ratio” value of the first is higher: 1.03 for the first, 1.02 for the second.

First: U8G G9C U10G U11C C12U C13U
Second: U8G G9C C12A C13U
The “aptazyme ON/OFF ratio” value of the first is lower: 1.03 for the first, 1.07 for the second.

Compared with U8G G9C C12A C13G, U8G G9C C12A C13A is higher in “aptazyme ON/OFF ratio” value: 1.03 for the first, 1.04 for the second.

Compared with U8G G9C U10A U11C C13U, U8G G9C U10A U11C C13A is higher in “aptazyme ON/OFF ratio” value: 1.03 for the first, 1.04 for the second.

U8G G9C U10A U11C C13G and U8G G9C U10C U11C C12U C13U are the same in “aptazyme ON/OFF ratio” value: 1.04 for the first, 1.04 for the second.

U8G G9C U10C U11C C12U C13G and U8G G9C U10C U11C C12U C13A are the same in “aptazyme ON/OFF ratio” value: 1.04 for the first, 1.04 for the second.

First: U8G G9C U10C U11A C12G C13G
Second: U8G G9C U10C U11A C12G C13U
The “aptazyme ON/OFF ratio” value of the first is lower: 1.1 for the first, 1.11 for the second.

Going from U8G G9C U10C U11A C12G C13A to U8G G9C U10C C12A C13G, the “aptazyme ON/OFF ratio” value rises from 1.02 to 1.06.

U8G G9C U10C C12A C13A and U8G G9C U10C C12A C13U are the same in “aptazyme ON/OFF ratio” value: 1.05 for the first, 1.05 for the second.

First: U8G G9C U10C C12G C13A
Second: U8G G9C U10C C12G C13G
The “aptazyme ON/OFF ratio” value of the first is higher: 1.16 for the first, 1.06 for the second.

Going from U8G G9C U10C C12G C13U to U8G G9C U11A C12A, the “aptazyme ON/OFF ratio” value rises from 1.08 to 1.11.

First: U8G G9C U11A C12G
Second: U8G G9C U11A C12U
The “aptazyme ON/OFF ratio” value of the first is higher: 1.07 for the first, 1.05 for the second.
